From US6013288A, “Process for manufacturing beer” (Suntory Limited, priority 1995, dated 2000)

Experiment: Decomposition of purine nucleosides in wort by nucleoside phosphorylase
Format: biochemical
Details: 7 units/ml, 3 hours at 30° C., wort extract concentration 12.5%
Protocol: Nucleoside phosphorylase derived from calf spleen (Boehringer) was added to wort having an extract concentration of 12.5% to a concentration of 7 units/ml, and allowed to react for 3 hours at 30° C. The amount of purine compounds in the wort to which enzyme was added and a wort held for 3 hours at 30° C. without adding enzyme as the control were measured using the method described in Experiment 1.

B1: nucleoside phosphorylase derived from calf spleen: Nucleoside phosphorylase derived from calf spleen (Boehringer), EC 2.4.2.1 (protein, UniProt P55859 1-289, looked up)
Purine nucleoside …: MANGYTYEDYQDTAKWLLSHTEQRPQVAVICGSGLGGLVNKLTQAQTFDYSEIPNFPESTVPGHAGRLVFGILNGRACVMMQGRFHMYEGYPFWKVTFPVRVFRLLGVETLVVTNAAGGLNPNFEVGDIMLIRDHINLPGFSGENPLRGPNEERFGVRFPAMSDAYDRDMRQKAHSTWKQMGEQRELQEGTYVMLGGPNFETVAECRLLRNLGADAVGMSTVPEVIVARHCGLRVFGFSLITNKVIMDYESQGKANHEEVLEAGKQAAQKLEQFVSLLMASIPVSGHTG
- decomposition ratio of each purine nucleoside: roughly 60%
